Results taken from patent publication US20220340682A1 (Sanofi, published 2022).

Experiments:
[1] = biological target: T1, hCEACAM5, human CEACAM5 ECD (35-685) (human, UniProt P06731 35-685); assay: ELISA, coated CEACAM5
T1 construct: produced in HEK293; also called human CEACAM5 protein; human CEACAM5 extracellular domain
T1 sequence: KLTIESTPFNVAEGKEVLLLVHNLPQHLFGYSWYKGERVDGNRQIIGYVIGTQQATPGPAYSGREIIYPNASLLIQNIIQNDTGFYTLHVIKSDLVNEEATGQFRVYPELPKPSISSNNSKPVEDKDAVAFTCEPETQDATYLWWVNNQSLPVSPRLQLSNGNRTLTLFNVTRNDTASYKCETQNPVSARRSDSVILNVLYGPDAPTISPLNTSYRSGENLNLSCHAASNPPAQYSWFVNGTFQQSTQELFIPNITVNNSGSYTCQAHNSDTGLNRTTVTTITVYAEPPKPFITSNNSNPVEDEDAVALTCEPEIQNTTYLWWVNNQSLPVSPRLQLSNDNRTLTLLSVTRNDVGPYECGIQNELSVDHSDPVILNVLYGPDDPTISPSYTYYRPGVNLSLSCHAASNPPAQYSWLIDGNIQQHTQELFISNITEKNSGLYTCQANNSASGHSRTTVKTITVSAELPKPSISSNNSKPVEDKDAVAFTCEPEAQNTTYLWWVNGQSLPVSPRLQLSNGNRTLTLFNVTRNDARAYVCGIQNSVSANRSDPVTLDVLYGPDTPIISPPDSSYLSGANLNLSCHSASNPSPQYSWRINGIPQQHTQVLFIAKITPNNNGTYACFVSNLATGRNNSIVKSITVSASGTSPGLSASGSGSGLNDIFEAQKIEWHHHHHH
Procedure: (§1) All CEACAM5-specific mAbs were assessed for their ability to bind human and primate CEACAM5 protein by ELISA. Plates were coated with human or primate CEACAM5 protein, anti-hCEACAM5 mAbs were added to the plate and detected with rabbit anti-mouse IgG conjugated with horseradish peroxidase (Sigma; # A9044). The antibody binding was visualized by adding TMB-H2O2 buffer and read at a wavelength of 450 nm.

[2] = biological target: T2, cCEACAM5, M. fascicularis CEACAM5 ECD (35-688) (Macaca fascicularis); assay: ELISA, coated CEACAM5
T2 construct: ECD followed by a 24 amino acid extension containing a His-Tag; also called cynomolgus CEACAM5; monkey CEACAM5
T2 chain: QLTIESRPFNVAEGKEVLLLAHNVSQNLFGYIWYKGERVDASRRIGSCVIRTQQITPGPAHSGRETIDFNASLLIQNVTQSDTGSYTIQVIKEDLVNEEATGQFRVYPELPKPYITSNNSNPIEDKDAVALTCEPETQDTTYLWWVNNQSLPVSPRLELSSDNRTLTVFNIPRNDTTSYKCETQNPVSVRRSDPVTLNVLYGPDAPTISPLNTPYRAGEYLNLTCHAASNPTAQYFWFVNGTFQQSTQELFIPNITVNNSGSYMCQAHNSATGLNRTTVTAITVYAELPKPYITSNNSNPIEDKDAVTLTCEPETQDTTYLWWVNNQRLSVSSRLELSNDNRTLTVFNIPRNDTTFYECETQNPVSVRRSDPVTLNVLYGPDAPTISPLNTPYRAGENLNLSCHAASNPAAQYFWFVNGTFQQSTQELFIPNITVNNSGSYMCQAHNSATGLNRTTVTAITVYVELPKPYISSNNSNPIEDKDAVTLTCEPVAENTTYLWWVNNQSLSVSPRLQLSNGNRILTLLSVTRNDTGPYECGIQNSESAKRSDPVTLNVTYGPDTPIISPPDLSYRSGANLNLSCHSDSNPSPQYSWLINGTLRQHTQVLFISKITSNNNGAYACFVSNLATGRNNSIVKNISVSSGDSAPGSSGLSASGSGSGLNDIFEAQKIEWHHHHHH
Procedure: as §1

[3] = biological target: T1, hCEACAM5, human CEACAM5 ECD (35-685); assay: ELISA
[4] = biological target: T2, cCEACAM5, M. fascicularis CEACAM5 ECD …; assay: ELISA
[5] = biological target: T1, hCEACAM5, human CEACAM5 ECD (35-685); assay: ELISA; remark: listed apart in the source
[6] = biological target: T3, hCEACAM7, human CEACAM7 ECD (36-248) (human); assay: ELISA
T3 construct: With 24 amino acid extension containing a His-Tag
T3 chain: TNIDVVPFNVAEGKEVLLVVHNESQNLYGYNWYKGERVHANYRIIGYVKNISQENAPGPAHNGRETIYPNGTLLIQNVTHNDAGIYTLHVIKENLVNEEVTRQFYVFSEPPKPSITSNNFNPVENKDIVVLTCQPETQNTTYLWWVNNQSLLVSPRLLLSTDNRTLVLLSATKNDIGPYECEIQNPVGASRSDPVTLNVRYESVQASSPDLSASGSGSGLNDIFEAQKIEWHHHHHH

[7] = biological target: T4, hCEACAM8, human CEACAM8 ECD (35-332) (human, UniProt P31997 35-332); assay: ELISA
T4 construct: With 24 amino acid extension containing a His-Tag
T4 sequence: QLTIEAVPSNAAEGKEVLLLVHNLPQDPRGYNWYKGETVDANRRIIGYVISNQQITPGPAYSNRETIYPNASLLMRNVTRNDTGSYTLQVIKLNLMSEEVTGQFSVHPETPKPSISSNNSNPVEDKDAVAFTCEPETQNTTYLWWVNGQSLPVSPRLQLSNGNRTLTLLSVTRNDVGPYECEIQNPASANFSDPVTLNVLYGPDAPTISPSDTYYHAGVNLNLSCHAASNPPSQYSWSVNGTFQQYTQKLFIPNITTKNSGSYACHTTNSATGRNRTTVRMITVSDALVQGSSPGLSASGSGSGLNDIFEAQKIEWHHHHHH

Binder | EC50 [1] | EC50 [2] | Ratio c/h (EC50 on cCEACAM5 against EC50 on hCEACAM5) [2] | EC50 [3] | EC50 [4] | percentage of binding compared to full binding with human CEACAM5 [5] | percentage of binding compared to full binding with human CEACAM5 [6] | percentage of binding compared to full binding with human CEACAM5 [7]
antibody MAb1 (antibody, IgG1, V domains shown) VH: EVMLVESGGGLVKPGGSLKLSCAASGFTFSSYAMSWVRQTPEKRLEWVATISSGGSYIYYLDSVKGRFTISRDNAKNTLYLQMSSLRSEDTAMYYCARPAYYGNPAMDYWGQGTSVTVSS VL: DILMTQSQKFMSTSVGDRVSVTCKASQNVGTNVAWYQQKPGQSPKPLIYSASYRYSGVPDRFTGSGSGTDFTLTISNVQSEDLAEYFCQQYNSYPLYTFGGGTKLEIK | 0.53 nM | 1.18 nM | 2.2 |  |  |  |  | 
antibody MAb3 (antibody, IgG1, V domains shown, Murine monoclonal from hybridoma, IgG1, kappa) VH: EVKLVESGGGLVKPGGSLTLPCAASGFTFSRYAMSWVRQTPEKRLEWVASISSGGDTYYPDSVKGRFTVSRDNARNILFLQMSSLRSEDTGMYYCARVNYYDSSFLDWWGQGTTLTVSS VL: DIVMTQSQRFMSTLEGDRVSVTCKASQNVGTNVAWYQQKPGQSPKALIYSASYRYSGVPDRFTGSGSGTDFTLTISNVQSEDLAEYFCQQYNNYPLYTFGGGTKLEIK | 0.36 nM | 3.72 nM | 10 |  |  |  |  | 
huMAb2-3 (antibody, human IgG1, kappa, V domains shown, Humanized MAb2, human IgG1 / Ckappa; also called MAb2_VL1cVH1a-IgG1) VH: EVQLQESGPGLVKPGGSLSLSCAASGFVFSSYDMSWVRQTPERGLEWVAYISSGGGITYAPSTVKGRFTVSRDNAKNTLYLQMNSLTSEDTAVYYCAAHYFGSSGPFAYWGQGTLVTVSS VL: DIQMTQSPASLSASVGDRVTITCRASENIFSYLAWYQQKPGKSPKLLVYNTRTLAEGVPSRFSGSGSGTDFSLTISSLQPEDFATYYCQHHYGTPFTFGSGTKLEIKR |  |  |  | 0.18 nM | 0.19 nM | 100% | 0.3% | 0.6%
huMAb2-1 (antibody, V domains shown, Humanized MAb2 (VL1 + VH1) fused to human IgG1 and human Ckappa constant domains; also called MAb2_VL1VH1-IgG1; MAb2VL1VH1-IgG1) VH: EVQLQESGPGLVKPGGSLSLSCAASGFVFSSYDMSWVRQTPERRLEWVAYISSGGGITYFPSTVKGRFTVSRDNAKNTLYLQMNSLTSEDTAIYYCAAHYFGSSGPFAYWGQGTLVTVSA VL: DIQMTQSPASLSASVGDTVTITCRASENIFSYLAWYQQKPGKSPKLLVYNTKTLAEGVPSRFSGSGSGTQFSLTISSLQPEDFGSYYCQHHYGTPFTFGSGTKLEIK |  |  |  | 0.22 nM | 0.2 nM | 100% | 0.3% | 0.9%

Next, values leading:

EC50 [1] | EC50 [2] | Ratio c/h (EC50 on cCEACAM5 against EC50 on hCEACAM5) [2] | EC50 [3] | EC50 [4] | percentage of binding compared to full binding with human CEACAM5 [5] | percentage of binding compared to full binding with human CEACAM5 [6] | percentage of binding compared to full binding with human CEACAM5 [7] | Binder
0.08 nM | 0.05 nM | 0.6 |  |  |  |  |  | antibody MAb4 (antibody, IgG1, V domains shown, Murine monoclonal from hybridoma, IgG1, kappa) VH: EVQLVESGGGLVKPGGSLKLSCAASGFTFSSYDMSWVRQTPEKRLEWVAFISSYGGRTYYADTVKGRFTISRDNAKNTLYLQMSSLKSEDTAMFYCAAHYFGTSGPFAYWGQGTLVTVSA VL: DIQMTQSPASLSASVGETVTITCRASENIYSYFAWYQQKQGKSPQLLVYNAKILAEGVPSRFSGSGSGTQFSLKINSLQPEDFGTYYCQHHYGIPFTFGSGTKLELK
0.4 nM | 0.45 nM | 1.1 |  |  |  |  |  | antibody MAb5 (antibody, IgG1, V domains shown, Murine monoclonal from hybridoma, IgG1, kappa) VH: ELQLVESGGVLVKPGGSLKLSCAASGFAFSSYDMSWVRQTPEKRLEWVTYINSGGGITYYPDTVKGRFTISRDNARNTLYLQMSSLKSEDTAIYYCTAHYFGSSGPFAYWGQGTLVTVSA VL: DIQMTQSPASLSASVGETVTITCRASENIYSYLAWYQQKQGKSPQLLVYNAKTLTEGVPSRFSGSGSGTQFSLKINSLQPEDFGSYYCQHHYGTPFTFGSGTKLEIK
 |  |  | 0.16 nM | 0.17 nM | 100% | 0.3% | 0.6% | chMAb2 (antibody, human IgG1, kappa, V domains shown, Chimeric, human IgG1, Ck isotype; also called MAb2-IgG1; chimeric MAb2) VH: EVQLQESGGVLVKPGGSLKLSCAASGFVFSSYDMSWVRQTPEKRLEWVAYISSGGGITYFPDTVQGRFTVSRDNAKNTLYLQMNSLKSEDTAIYYCAAHYFGSSGPFAYWGQGTLVTVSA VL: DIQMTQSPASLSASVGETVTITCRASENIFSYLAWYQQKQGKSPQLLVYNTKTLAEGVPSRFSGSGSGTQFSLKINSLQPEDFGSYYCQHHYGTPFTFGSGTKLEIKR
 |  |  | 0.2 nM | 0.17 nM | 100% | 0.3% | 0.5% | huMAb2-2 (antibody, V domains shown, Humanized MAb2 (VL1a + VH1a) fused to human IgG1 and human Ckappa constant domains; also called MAb2_VL1aVH1a-IgG1; MA2_VL1aVH1a-IgG1) VH: EVQLQESGPGLVKPGGSLSLSCAASGFVFSSYDMSWVRQTPERGLEWVAYISSGGGITYAPSTVKGRFTVSRDNAKNTLYLQMNSLTSEDTAVYYCAAHYFGSSGPFAYWGQGTLVTVSS VL: DIQMTQSPASLSASVGDRVTITCRASENIFSYLAWYQQKPGKSPKLLVYNTKTLAEGVPSRFSGSGSGTDFSLTISSLQPEDFATYYCQHHYGTPFTFGSGTKLEIK
 |  |  | 0.22 nM | 0.17 nM | 100% | 0.3% | 1.4% | huMAb2-4 (antibody, human IgG1, kappa, V domains shown, Humanized MAb2, human IgG1 / Ckappa; also called MAb2_VL1d VH1-IgG1; MAb2_VL1dVH1-IgG1) VH: EVQLQESGPGLVKPGGSLSLSCAASGFVFSSYDMSWVRQTPERRLEWVAYISSGGGITYFPSTVKGRFTVSRDNAKNTLYLQMNSLTSEDTAIYYCAAHYFGSSGPFAYWGQGTLVTVSA VL: DIQMTQSPASLSASVGDTVTITCRASENIFSYLAWYQQKPGKSPKLLVYNTRTLAEGVPSRFSGSGSGTQFSLTISSLQPEDFGSYYCQHHYGTPFTFGSGTKLEIKR
